Assays:
Experiment in all cases: SPR; KD relative to WT C2;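 also: biacore SPR at 37 °C, anti-C2 mAbs captured on an anti-human IgG chip, alanine or serine C2 surface mutants tested, KD from 1:1 fit compared with wild-type C2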
human C2 E324A = biological target: T1, human C2 E324A (human, UniProt P06681 21-752)
T1 sequence: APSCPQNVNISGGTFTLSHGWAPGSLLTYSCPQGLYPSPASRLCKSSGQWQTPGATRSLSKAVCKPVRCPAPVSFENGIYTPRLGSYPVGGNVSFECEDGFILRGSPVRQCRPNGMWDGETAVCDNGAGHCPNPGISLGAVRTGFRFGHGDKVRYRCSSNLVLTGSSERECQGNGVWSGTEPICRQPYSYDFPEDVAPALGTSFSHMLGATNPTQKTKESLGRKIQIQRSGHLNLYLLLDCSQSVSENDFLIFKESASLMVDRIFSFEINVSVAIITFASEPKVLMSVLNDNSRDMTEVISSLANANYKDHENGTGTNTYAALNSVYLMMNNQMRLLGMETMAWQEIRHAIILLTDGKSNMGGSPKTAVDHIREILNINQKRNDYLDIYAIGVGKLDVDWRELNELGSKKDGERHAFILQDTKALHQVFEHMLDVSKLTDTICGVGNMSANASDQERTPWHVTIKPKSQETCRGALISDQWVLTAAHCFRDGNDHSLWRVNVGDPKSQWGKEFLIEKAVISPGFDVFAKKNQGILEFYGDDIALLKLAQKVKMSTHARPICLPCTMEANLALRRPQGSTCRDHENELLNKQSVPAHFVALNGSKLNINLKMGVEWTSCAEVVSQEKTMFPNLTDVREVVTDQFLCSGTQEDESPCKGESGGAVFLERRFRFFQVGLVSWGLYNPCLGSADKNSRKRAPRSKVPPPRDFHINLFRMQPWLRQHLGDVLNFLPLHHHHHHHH

human C2 K329A = biological target: T2, human C2 K329A (human, UniProt P06681 21-752)
T2 sequence: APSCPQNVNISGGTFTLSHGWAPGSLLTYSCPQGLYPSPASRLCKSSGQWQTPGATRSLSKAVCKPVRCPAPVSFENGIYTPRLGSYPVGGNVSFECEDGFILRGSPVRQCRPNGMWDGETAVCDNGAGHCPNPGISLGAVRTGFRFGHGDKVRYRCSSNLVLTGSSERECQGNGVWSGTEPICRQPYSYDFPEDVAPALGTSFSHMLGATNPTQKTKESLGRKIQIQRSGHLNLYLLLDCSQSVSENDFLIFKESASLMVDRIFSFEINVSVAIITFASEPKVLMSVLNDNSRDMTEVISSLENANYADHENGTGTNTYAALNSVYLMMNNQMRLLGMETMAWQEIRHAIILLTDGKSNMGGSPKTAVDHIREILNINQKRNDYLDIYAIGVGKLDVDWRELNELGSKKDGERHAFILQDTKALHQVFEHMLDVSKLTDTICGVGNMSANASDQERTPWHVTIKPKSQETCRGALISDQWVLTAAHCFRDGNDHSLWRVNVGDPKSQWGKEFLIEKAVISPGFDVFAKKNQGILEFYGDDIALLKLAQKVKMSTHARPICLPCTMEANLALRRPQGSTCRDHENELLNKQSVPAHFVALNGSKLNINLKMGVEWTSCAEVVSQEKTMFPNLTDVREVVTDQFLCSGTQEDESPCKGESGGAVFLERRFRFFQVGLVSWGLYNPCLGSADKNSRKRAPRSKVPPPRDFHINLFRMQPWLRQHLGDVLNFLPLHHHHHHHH

human C2 W420A = biological target: T3, human C2 W420A (human, UniProt P06681 21-752)
T3 sequence: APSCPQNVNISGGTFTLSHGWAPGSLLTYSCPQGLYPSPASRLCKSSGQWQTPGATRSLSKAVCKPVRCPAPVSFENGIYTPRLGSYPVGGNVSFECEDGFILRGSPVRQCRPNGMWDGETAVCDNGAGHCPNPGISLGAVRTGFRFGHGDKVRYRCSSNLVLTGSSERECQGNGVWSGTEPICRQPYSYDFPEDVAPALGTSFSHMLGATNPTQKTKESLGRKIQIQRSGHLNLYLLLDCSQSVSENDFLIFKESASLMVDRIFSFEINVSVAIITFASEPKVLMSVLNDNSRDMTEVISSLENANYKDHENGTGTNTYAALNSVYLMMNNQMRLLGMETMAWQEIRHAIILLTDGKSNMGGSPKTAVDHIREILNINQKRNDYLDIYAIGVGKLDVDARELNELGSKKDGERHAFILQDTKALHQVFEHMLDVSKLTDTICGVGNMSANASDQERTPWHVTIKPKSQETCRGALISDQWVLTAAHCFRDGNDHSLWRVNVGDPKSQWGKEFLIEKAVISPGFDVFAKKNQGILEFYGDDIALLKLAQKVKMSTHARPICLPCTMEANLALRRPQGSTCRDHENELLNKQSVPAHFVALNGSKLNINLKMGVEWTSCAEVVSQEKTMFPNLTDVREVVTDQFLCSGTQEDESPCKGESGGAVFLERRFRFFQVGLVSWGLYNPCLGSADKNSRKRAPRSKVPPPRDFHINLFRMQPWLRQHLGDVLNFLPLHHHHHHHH

human C2 S469A = biological target: T4, human C2 S469A (human, UniProt P06681 21-752)
T4 sequence: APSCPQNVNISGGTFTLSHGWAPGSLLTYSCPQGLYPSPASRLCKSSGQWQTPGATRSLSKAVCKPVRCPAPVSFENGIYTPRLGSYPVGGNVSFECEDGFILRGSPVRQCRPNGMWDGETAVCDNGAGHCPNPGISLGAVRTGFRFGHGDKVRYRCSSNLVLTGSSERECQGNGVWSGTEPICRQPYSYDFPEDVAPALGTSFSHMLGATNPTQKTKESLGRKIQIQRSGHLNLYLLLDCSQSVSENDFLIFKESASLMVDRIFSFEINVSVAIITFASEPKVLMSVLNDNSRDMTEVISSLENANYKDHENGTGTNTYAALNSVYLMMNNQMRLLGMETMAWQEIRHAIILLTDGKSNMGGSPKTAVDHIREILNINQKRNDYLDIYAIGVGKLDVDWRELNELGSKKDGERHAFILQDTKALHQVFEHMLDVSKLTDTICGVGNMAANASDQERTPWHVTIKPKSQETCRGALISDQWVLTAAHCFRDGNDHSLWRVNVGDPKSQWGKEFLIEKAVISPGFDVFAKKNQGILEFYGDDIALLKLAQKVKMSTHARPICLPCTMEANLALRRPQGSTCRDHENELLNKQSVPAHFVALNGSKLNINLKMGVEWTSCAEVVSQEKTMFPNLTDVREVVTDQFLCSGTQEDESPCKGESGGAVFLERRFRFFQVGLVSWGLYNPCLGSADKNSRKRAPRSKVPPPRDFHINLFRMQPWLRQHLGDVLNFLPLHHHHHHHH

B1: RF16-214 (antibody, V domains shown)
VH: EVQLLESGGGLVQPGGSLRLSCAASGFTFSWYQMMWVRQAPGKGLEWVSRIYPSGGGTAYADSVKGRFTISRDNSKNTLYLQMNSLRAEDTAVYYCARDAGYGDNWGQGTLVTVSS
VL: QSALTQPPSVSVSPGQTASITCSGDKLGEKYASWYQQKAGQSPVMVIYQDRKRPSGIPERFSGSNSGNTATLTISGTQAMDEADYYCQAWDTRAVVFGGGTKLTVLG
Human C2 E324A
  Fold diff: 1 fold
Human C2 K329A
  Fold diff: 2 fold
Human C2 W420A
  Fold diff: 1 fold
Human C2 S469A
  Fold diff: 3 fold

From patent US20220332804A1 (CSL INNOVATION, published 2022)
